From patent US20190241623A1 (EVAXION BIOTECH A S, published 2019)

Columns and labels:
[1] = molecular target: T1, MHC Class II molecule DRB1*01:01 (UniProt P01903 26-216; P01911 30-227); assay: peptide:MHC II complex stability assay (Immunitrack)
T1 construct: Assay done by Immunitrack; the construct of the MHC II molecule is not described

[2] = molecular target: T2, MHC Class II molecule DRB1*04:01 (UniProt P01903 26-216; P01911 30-227); assay: as above
T2 construct: Assay done by Immunitrack; the construct of the MHC II molecule is not described

B1: SEQ ID NO 38 (peptide)
peptide: VLFYLRSNKRQIIEK
notes: 15-mer peptide selected in silico from the S. aureus proteomes
binding result [1]: binds
binding result [2]: binds

B2: SEQ ID NO 26 (peptide)
peptide: KADALKAITALKLQM
notes: as for B1
binding result [1]: binds
binding result [2]: binds

B3: SEQ ID NO 21 (peptide)
peptide: EPINFILKSSTKLKA
notes: as for B1
binding result [1]: binds
binding result [2]: binds

B4: SEQ ID NO 27 (peptide)
peptide: KHQIRMLSIPRDTIS
notes: as for B1
binding result [1]: binds
binding result [2]: binds

B5: SEQ ID NO 39 (peptide)
peptide: WKRIGRLKSIPIFMY
notes: as for B1
binding result [1]: binds
binding result [2]: binds

B6: SEQ ID NO 29 (peptide)
peptide: KTLFVALNNKARIPE
notes: as for B1
binding result [1]: binds
binding result [2]: binds

B7: SEQ ID NO 28 (peptide)
peptide: KRIFKMSPIHHHFEL
notes: as for B1
binding result [1]: binds
binding result [2]: binds

B8: SEQ ID NO 30 (peptide)
peptide: LDQIIAQANLRLATM
notes: as for B1
binding result [1]: binds
binding result [2]: binds

B9: SEQ ID NO 34 (peptide)
peptide: SSNVYMFKTALKLAG
notes: as for B1
binding result [1]: binds
binding result [2]: binds

B10: SEQ ID NO 22 (peptide)
peptide: FLKLFRITNPIARGL
notes: as for B1
binding result [1]: binds
binding result [2]: binds

B11: SEQ ID NO 24 (peptide)
peptide: IIKKLFRLPAIKRFE
notes: as for B1
binding result [1]: binds
binding result [2]: binds

B12: SEQ ID NO 25 (peptide)
peptide: ILLGYFVAQRALVKA
notes: as for B1
binding result [1]: binds
binding result [2]: binds

B13: SEQ ID NO 36 (peptide)
peptide: SVTIIKSLQAIRVPF
notes: as for B1
binding result [1]: binds
binding result [2]: binds

B14: SEQ ID NO 31 (peptide)
peptide: LMGIRAFRKLLPNIP
notes: as for B1
binding result [1]: binds
binding result [2]: binds

B15: SEQ ID NO 33 (peptide)
peptide: QRHFQIGYNRAARII
notes: as for B1
binding result [1]: binds
binding result [2]: binds

B16: SEQ ID NO 40 (peptide)
peptide: YFRFQYFNPLKSERY
notes: as for B1
binding result [1]: binds
binding result [2]: binds

B17: SEQ ID NO 35 (peptide)
peptide: STFIYKIANERLFSR
notes: as for B1
binding result [1]: binds
binding result [2]: binds

B18: SEQ ID NO 23 (peptide)
peptide: GLYFVAMNNLKAAGQ
notes: as for B1
binding result [1]: binds
binding result [2]: binds

B19: SEQ ID NO 37 (peptide)
peptide: TSQFHVLRALRLAQK
notes: as for B1
binding result [1]: binds
binding result [2]: binds

B20: SEQ ID NO 32 (peptide)
peptide: MHFIAISINHRTADV
notes: as for B1
binding result [1]: binds
binding result [2]: binds
